Assay results from publication PMC3079584, “A Cytoplasmic Complex Mediates Specific mRNA Recognition and Localization in Yeast”.

Tests used:
She2p (ΔC);She3p = She2p (ΔC);She3p (Saccharomyces cerevisiae;Saccharomyces …, UniProt P36068;P38272 1-240;1-425, |); test: size-exclusion chromatography; EMSA: 20 mM HEPES pH 7.8, 200 mM NaCl, 2 mM MgCl2, 2 mM DTT, 4% glycerol, 30 or 100 ug/ml yeast tRNA, 5 nM RNA, 20 C; filter binding: 20 mM HEPES pH 7.4-7.5 (7.9 with She3p), 150 mM NaCl, 2 mM MgCl2, 2 mM DTT, 30 ug/ml yeast tRNA, 0.5 nM RNA; pull-down: HNMD buffer, 4 C; conditions: protein: recombinant;recombinant; tags: GST tag (PreScission-cleaved);C-terminal His6; stem-loop
She2p;She3p [1] = target: T1, She2p;She3p (Saccharomyces cerevisiae;Saccharomyces …, UniProt P36068;P38272 1-246;1-425, |); test: size-exclusion chromatography; pull-down; EMSA: 20 mM HEPES pH 7.8, 200 mM NaCl, 2 mM MgCl2, 2 mM DTT, 4% glycerol, 30 or 100 ug/ml yeast tRNA, 5 nM RNA, 20 C; filter binding: 20 mM HEPES pH 7.4-7.5 (7.9 with She3p), 150 mM NaCl, 2 mM MgCl2, 2 mM DTT, 30 ug/ml yeast tRNA, 0.5 nM RNA; pull-down: HNMD buffer, 4 C; conditions: protein: recombinant;recombinant; tags: GST tag (PreScission-cleaved);C-terminal His6; chain copies: 4;2; stem-loop
Target sequence in this assay (P36068 whole entry, one chain of several): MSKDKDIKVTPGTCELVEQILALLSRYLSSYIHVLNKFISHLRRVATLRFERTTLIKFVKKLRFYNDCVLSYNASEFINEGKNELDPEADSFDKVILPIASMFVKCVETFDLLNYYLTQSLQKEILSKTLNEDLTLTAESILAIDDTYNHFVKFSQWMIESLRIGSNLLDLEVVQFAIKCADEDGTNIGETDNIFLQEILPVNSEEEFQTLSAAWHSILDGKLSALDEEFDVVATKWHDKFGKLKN

Puf6p;She2p = Puf6p;She2p (Saccharomyces cerevisiae;Saccharomyces …, UniProt Q04373;P36068 2-656;1-246, |); test: pull-down; GST-Puf6p immobilized; EMSA: 20 mM HEPES pH 7.8, 200 mM NaCl, 2 mM MgCl2, 2 mM DTT, 4% glycerol, 30 or 100 ug/ml yeast tRNA, 5 nM RNA, 20 C; filter binding: 20 mM HEPES pH 7.4-7.5 (7.9 with She3p), 150 mM NaCl, 2 mM MgCl2, 2 mM DTT, 30 ug/ml yeast tRNA, 0.5 nM RNA; pull-down: HNMD buffer, 4 C; conditions: protein: recombinant;recombinant; tags: GST tag (cleaved for EMSA; retained in GST pull-downs);GST tag (PreScission-cleaved); copies: 1;4; stem-loop
She2p (ΔhE) = She2p (ΔhE) (Saccharomyces cerevisiae, UniProt P36068 1-246, del174-183); test: size-exclusion chromatography; binary co-complex; EMSA: 20 mM HEPES pH 7.8, 200 mM NaCl, 2 mM MgCl2, 2 mM DTT, 4% glycerol, 30 or 100 ug/ml yeast tRNA, 5 nM RNA, 20 C; filter binding: 20 mM HEPES pH 7.4-7.5 (7.9 with She3p), 150 mM NaCl, 2 mM MgCl2, 2 mM DTT, 30 ug/ml yeast tRNA, 0.5 nM RNA; pull-down: HNMD buffer, 4 C; conditions: protein: recombinant; tags: GST tag (PreScission-cleaved); chain copies: 2; stem-loop
Puf6p;She2p;She3p = Puf6p;She2p;She3p (Saccharomyces cerevisiae;Saccharomyces …, UniProt Q04373;P36068;P38272 2-656;1-246;1-425, ||); test: pull-down; His-She3p or GST-Puf6p immobilized; EMSA: 20 mM HEPES pH 7.8, 200 mM NaCl, 2 mM MgCl2, 2 mM DTT, 4% glycerol, 30 or 100 ug/ml yeast tRNA, 5 nM RNA, 20 C; filter binding: 20 mM HEPES pH 7.4-7.5 (7.9 with She3p), 150 mM NaCl, 2 mM MgCl2, 2 mM DTT, 30 ug/ml yeast tRNA, 0.5 nM RNA; pull-down: HNMD buffer, 4 C; conditions: protein: recombinant;recombinant;recombinant; tags: GST tag (cleaved for EMSA; retained in GST pull-downs);GST tag (PreScission-cleaved);C-terminal His6; stem-loop
She2p [2] = target: T2, She2p (Saccharomyces cerevisiae, UniProt P36068 1-246); test: filter binding; range over three control RNAs; EMSA: 20 mM HEPES pH 7.8, 200 mM NaCl, 2 mM MgCl2, 2 mM DTT, 4% glycerol, 30 or 100 ug/ml yeast tRNA, 5 nM RNA, 20 C; filter binding: 20 mM HEPES pH 7.4-7.5 (7.9 with She3p), 150 mM NaCl, 2 mM MgCl2, 2 mM DTT, 30 ug/ml yeast tRNA, 0.5 nM RNA; pull-down: HNMD buffer, 4 C; conditions: protein: recombinant; tags: GST tag (PreScission-cleaved); chain copies: 4; label: 32P; hairpin
She2p;She3p [3] = target: T1, She2p;She3p; test: EMSA; She3p constant 25 nM, She2p varied; EMSA: 20 mM HEPES pH 7.8, 200 mM NaCl, 2 mM MgCl2, 2 mM DTT, 4% glycerol, 30 or 100 ug/ml yeast tRNA, 5 nM RNA, 20 C; filter binding: 20 mM HEPES pH 7.4-7.5 (7.9 with She3p), 150 mM NaCl, 2 mM MgCl2, 2 mM DTT, 30 ug/ml yeast tRNA, 0.5 nM RNA; pull-down: HNMD buffer, 4 C; conditions: protein: recombinant;recombinant; tags: GST tag (PreScission-cleaved);C-terminal His6; chain copies: 4;2; label: 32P; stem-loop
Target sequence in this assay (P36068 whole entry, one chain of several): as above

She3p [4] = target: T3, She3p (Saccharomyces cerevisiae, UniProt P38272 1-425); test: EMSA; subtle shift at 25 nM She3p; EMSA: 20 mM HEPES pH 7.8, 200 mM NaCl, 2 mM MgCl2, 2 mM DTT, 4% glycerol, 30 or 100 ug/ml yeast tRNA, 5 nM RNA, 20 C; filter binding: 20 mM HEPES pH 7.4-7.5 (7.9 with She3p), 150 mM NaCl, 2 mM MgCl2, 2 mM DTT, 30 ug/ml yeast tRNA, 0.5 nM RNA; pull-down: HNMD buffer, 4 C; conditions: protein: recombinant; tags: C-terminal His6; label: 32P; stem-loop
T3 sequence: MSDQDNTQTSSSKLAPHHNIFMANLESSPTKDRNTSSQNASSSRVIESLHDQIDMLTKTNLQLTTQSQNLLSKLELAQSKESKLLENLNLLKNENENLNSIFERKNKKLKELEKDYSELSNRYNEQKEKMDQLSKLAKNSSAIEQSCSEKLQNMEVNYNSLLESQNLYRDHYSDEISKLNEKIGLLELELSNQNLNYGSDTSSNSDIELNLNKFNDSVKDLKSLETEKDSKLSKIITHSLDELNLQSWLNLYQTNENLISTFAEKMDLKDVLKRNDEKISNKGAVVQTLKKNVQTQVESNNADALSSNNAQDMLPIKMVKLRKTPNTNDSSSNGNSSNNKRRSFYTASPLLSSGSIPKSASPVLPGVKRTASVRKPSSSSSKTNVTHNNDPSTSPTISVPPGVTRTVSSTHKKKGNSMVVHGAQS

She3p [5] = target: T3, She3p; test: EMSA; EMSA: 20 mM HEPES pH 7.8, 200 mM NaCl, 2 mM MgCl2, 2 mM DTT, 4% glycerol, 30 or 100 ug/ml yeast tRNA, 5 nM RNA, 20 C; filter binding: 20 mM HEPES pH 7.4-7.5 (7.9 with She3p), 150 mM NaCl, 2 mM MgCl2, 2 mM DTT, 30 ug/ml yeast tRNA, 0.5 nM RNA; pull-down: HNMD buffer, 4 C; conditions: protein: recombinant; tags: C-terminal His6; label: 32P; stem-loop
Puf6p = Puf6p (Saccharomyces cerevisiae, UniProt Q04373 2-656); test: as above; conditions: protein: recombinant, tags: GST tag (cleaved for EMSA; retained in GST pull-downs), label: 32P
She2p;She3p [6] = target: T1, She2p;She3p; test: EMSA; She3p constant 25 nM; Kd stated as in similar range; EMSA: 20 mM HEPES pH 7.8, 200 mM NaCl, 2 mM MgCl2, 2 mM DTT, 4% glycerol, 30 or 100 ug/ml yeast tRNA, 5 nM RNA, 20 C; filter binding: 20 mM HEPES pH 7.4-7.5 (7.9 with She3p), 150 mM NaCl, 2 mM MgCl2, 2 mM DTT, 30 ug/ml yeast tRNA, 0.5 nM RNA; pull-down: HNMD buffer, 4 C; conditions: protein: recombinant;recombinant; tags: GST tag (PreScission-cleaved);C-terminal His6; chain copies: 4;2; label: 32P; stem-loop
Target sequence in this assay (P36068 whole entry, chain 1 of 2, one chain of several): as the sequence (P36068 whole entry, one chain of several) above

She3p [7] = target: T3, She3p; test: UV cross-linking; EMSA: 20 mM HEPES pH 7.8, 200 mM NaCl, 2 mM MgCl2, 2 mM DTT, 4% glycerol, 30 or 100 ug/ml yeast tRNA, 5 nM RNA, 20 C; filter binding: 20 mM HEPES pH 7.4-7.5 (7.9 with She3p), 150 mM NaCl, 2 mM MgCl2, 2 mM DTT, 30 ug/ml yeast tRNA, 0.5 nM RNA; pull-down: HNMD buffer, 4 C; conditions: protein: recombinant; tags: C-terminal His6; label: 32P; stem-loop
She2p [8] = target: T2, She2p; test: as above; conditions: protein: recombinant; tags: GST tag (PreScission-cleaved); chain copies: 4; label: 32P; stem-loop

T2 sequence (P36068 whole entry): as the sequence (P36068 whole entry, one chain of several) above
Sequence of Puf6p (Q04373 2-656): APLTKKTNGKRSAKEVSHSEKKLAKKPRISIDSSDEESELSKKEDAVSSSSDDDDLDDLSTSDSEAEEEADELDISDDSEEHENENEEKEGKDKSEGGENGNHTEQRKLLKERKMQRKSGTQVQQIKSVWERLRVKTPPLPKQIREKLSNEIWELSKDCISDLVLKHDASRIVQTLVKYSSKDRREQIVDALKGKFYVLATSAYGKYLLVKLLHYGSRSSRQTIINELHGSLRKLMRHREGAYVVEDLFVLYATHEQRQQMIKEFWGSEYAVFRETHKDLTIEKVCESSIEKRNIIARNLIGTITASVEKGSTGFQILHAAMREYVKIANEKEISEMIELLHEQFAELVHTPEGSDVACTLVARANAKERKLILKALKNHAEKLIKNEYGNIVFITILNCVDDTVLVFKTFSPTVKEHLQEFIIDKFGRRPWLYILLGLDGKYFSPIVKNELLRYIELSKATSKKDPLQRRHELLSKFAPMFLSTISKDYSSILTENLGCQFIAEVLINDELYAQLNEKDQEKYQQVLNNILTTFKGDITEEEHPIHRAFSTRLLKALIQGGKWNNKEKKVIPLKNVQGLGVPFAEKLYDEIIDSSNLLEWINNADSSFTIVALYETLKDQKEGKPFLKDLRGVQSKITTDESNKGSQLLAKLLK
Sequence of She2p (ΔhE) (P36068 other isoform, or with tags, fused parts or gaps del174-183 | mutant): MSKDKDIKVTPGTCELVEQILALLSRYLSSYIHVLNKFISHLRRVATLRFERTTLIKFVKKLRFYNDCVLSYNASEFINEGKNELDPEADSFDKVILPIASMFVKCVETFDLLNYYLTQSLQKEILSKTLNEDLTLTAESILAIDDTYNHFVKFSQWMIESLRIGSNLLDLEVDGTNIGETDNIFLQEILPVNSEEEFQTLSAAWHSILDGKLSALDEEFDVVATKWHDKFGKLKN
Sequence of Puf6p;She2p;She3p (Q04373 2-656, chain 1 of 2): as the sequence (Q04373 2-656) above
Sequence of Puf6p;She2p;She3p (P36068 whole entry, chain 2 of 2): as the sequence (P36068 whole entry, one chain of several) above
Sequence of Puf6p;She2p (Q04373 2-656, chain 1 of 2): as the sequence (Q04373 2-656) above
Sequence of Puf6p;She2p (P36068 whole entry, chain 2 of 2): as the sequence (P36068 whole entry, one chain of several) above
Sequence of She2p (ΔC);She3p (P36068 1-240, stated change not applied, one chain of several): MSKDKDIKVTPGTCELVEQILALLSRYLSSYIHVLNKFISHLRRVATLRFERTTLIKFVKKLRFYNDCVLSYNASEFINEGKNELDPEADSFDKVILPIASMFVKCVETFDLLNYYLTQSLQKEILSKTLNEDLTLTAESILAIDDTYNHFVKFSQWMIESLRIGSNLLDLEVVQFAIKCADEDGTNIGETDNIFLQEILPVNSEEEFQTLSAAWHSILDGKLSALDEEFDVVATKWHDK

B1: E3-118-tRNA (structured_RNA)
RNA: GGCUACGUAGCUCAGUUGGUUAGAGCAGCGGCCGGAGACAGUAGAGAAUUGAUACAUGGAUAACUGAAUCUCUUUCAACUAAUAAGAGACAUUAUCACGAAACAAUUGUACAUUUCUCUCCUUGUCUGUGCUAAAUAAACUACAAAUAAAAACCGCGGGUCACAGGUUCGAAUCCCGUCGUAGCCACCA
binding result (She2p (ΔC);She3p): binds
binding result (She2p;She3p [1]): binds
binding result (Puf6p;She2p): binds
binding result (She2p (ΔhE)): binds
binding result (Puf6p;She2p;She3p): binds

B2: HIV-1 TAR (57 bases) (structured_RNA)
RNA: GGUCUCUCUGGUUAGACCAGAUCUGAGCCUGGGAGCUCUCUGGCUAACUAGGGAACC
Kd (She2p [2]): ~1330 nM

B3: ASH1 E2A (structured_RNA)
RNA: UUGCGAAUAGAGACAUUCUAUCGAACAAUUCCAAAUCUAAUGUAAGGAAACCAUCUAAGAACAAAAUCUCAAAGCAA
Kd (She2p;She3p [3]): ~25 nM
binding result (She3p [4]): binds

UUAUCCAUUGCACUCCGGAUGU (structured_RNA) [U1 snRNA hairpin II]
Kd (She2p [2]): ~1330 nM

B4: ASH1 E1 (structured_RNA)
RNA: AAGACUAUGUUAAAAUACGCGAAGAAGUGGCUCAUUUCAAGCCAUUAAGUAUACCCAACUUAACUAAUAAUCAAAAUAA
Kd (She2p;She3p [3]): ~25 nM
binding result (She3p [4]): binds

B5: ASH1 E2B (domain 1) (structured_RNA)
RNA: AUCUUCAUCUCCAUCUCCCUCCACACCGACGAAAAGUGGCAAGAUGAGAUCAAGAUCA
Kd (She2p;She3p [3]): ~25 nM

CGAAGAUGAAAAUGAUCACGAGAGAGAUCCCGAACAAUUUUCAGAAUUUG (structured_RNA) [EAR1 zip code]
binding result (She3p [5]): binds
binding result (Puf6p; stem-loop): binds
Kd (She2p;She3p [3]): ~25 nM

CGAGCCUGGGAGCUCG (structured_RNA) [HIV-1 TAR (16 bases)]
Kd (She2p [2]): ~1330 nM

B6: Poly(A)60 (ssRNA)
RNA: AAAAAAAAAAAAAAAAAAAAAAAAAAAAAAAAAAAAAAAAAAAAAAAAAAAAAAAAAAAA
binding result (Puf6p): binds

B7: ASH1 E3-51 (structured_RNA)
RNA: AUGGAUAACUGAAUCUCUUUCAACUAAUAAGAGACAUUAUCACGAAACAAU
Kd (She2p;She3p [6]): ~25 nM
binding result (She3p [7]): binds
binding result (She2p [8]): binds
